The labels stand for the following.
B1: Cell division cycle and apoptosis regulator protein 1, residues 625 to 674; numbered along this chain, Q8IX12 (parent)
chain: ISTPTHWSKLDPKTMKVNDLRKELESRALSSKGLKSQLIARLTKQLKVEE

In the Human Domainome abundance scans (Beltran et al. 2025) one finds abundance fitness data, which are given here for 52 variants.

± gives the uncertainty stated by the source.

The variants in the series derive from B1. Kind of series: abundance fitness (aPCA) (normalised: wild type 0, dead -1); higher = more abundant; growth selection in yeast, the domain comes from the species named. To be noted: Homo sapiens.
For the variant ISTPTHWSKLDPKTMKVNDLRKELESRALSSKGLKSQLIARLCKQLKVEE [T43C], the abundance fitness is -0.071 ± 0.042. ISTPTHWSKLDPKTMKVNDLRKELESRALSSKGLKSQLITRLTKQLKVEE [A40T]: the abundance fitness was -0.108 ± 0.048. Consider ISTPTHWSKLDPKTMKVNDLRKELESRALSSKGLKSQLIRRLTKQLKVEE [A40R], for which the abundance fitness is 0.019 ± 0.042. ISTPTHWSKLDPKTMKVNDLRKELESRALSSKGLKSQLISRLTKQLKVEE [A40S]: the abundance fitness is -0.028 ± 0.033. In the case of ISTPTHWSKLDPKTMKVNDLRKELESRALSSKGLKSQLIFRLTKQLKVEE [A40F] it was 0.032 ± 0.059.

On to ISTPTHWSKLDPKTMKVNDLRKELESRALSSKGLKSQLINRLTKQLKVEE [A40N], for which the abundance fitness is -0.066 ± 0.036. As for ISTPTHWSKLDPKTMKVNDLRKELESRALSSKGLKSQLIDRLTKQLKVEE [A40D], the abundance fitness was -0.05 ± 0.04. On to ISTPTHWSKLDPKTMKVNDLRKELESRALSSKGLKSQLILRLTKQLKVEE [A40L], for which the abundance fitness is -0.095 ± 0.036. Turning to ISTPTHWSKLDPKTMKVNDLRKELESRALSSKGLKSQLIGRLTKQLKVEE [A40G], the abundance fitness was 0.03 ± 0.032. With ISTPTHWSKLDPKTMKVNDLRKELESRALSSKGLKSQLIHRLTKQLKVEE [A40H], the abundance fitness turned out to be 0.1 ± 0.064. In the case of ISTPTHWSKLDPKTMKVNDLRKELESRALSSKGLKSQLIPRLTKQLKVEE [A40P], the abundance fitness is -0.12 ± 0.041. The result for ISTPTHWSKLDPKTMKVNDLRKELESRALSSKGLKSQLICRLTKQLKVEE [A40C] reads -0.07 ± 0.046; that for ISTPTHWSKLDPKTMKVNDLRKELESRALSSKGLKSQLIIRLTKQLKVEE [A40I], -0.186 ± 0.065. Take ISTPTHWSKLDPKTMKVNDLRKELESRALSSKGLKSQLIMRLTKQLKVEE [A40M]: the abundance fitness worked out at 0.034 ± 0.035. As to ISTPTHWSKLDPKTMKVNDLRKELESRALSSKGLKSQLIKRLTKQLKVEE [A40K], the abundance fitness is -0.349 ± 0.069. As for ISTPTHWSKLDPKTMKVNDLRKELESRALSSKGLKSQLIYRLTKQLKVEE [A40Y], the abundance fitness is 0.219 ± 0.043. Turning to ISTPTHWSKLDPKTMKVNDLRKELESRALSSKGLKSQLIAMLTKQLKVEE [R41M], the abundance fitness is -0.356 ± 0.045. In the case of ISTPTHWSKLDPKTMKVNDLRKELESRALSSKGLKSQLIASLTKQLKVEE [R41S], the abundance fitness was -0.271 ± 0.035. The result for ISTPTHWSKLDPKTMKVNDLRKELESRALSSKGLKSQLIALLTKQLKVEE [R41L] reads -0.331 ± 0.041; that for ISTPTHWSKLDPKTMKVNDLRKELESRALSSKGLKSQLIAKLTKQLKVEE [R41K], -0.202 ± 0.03; that for ISTPTHWSKLDPKTMKVNDLRKELESRALSSKGLKSQLIAVLTKQLKVEE [R41V], -0.417 ± 0.043. With ISTPTHWSKLDPKTMKVNDLRKELESRALSSKGLKSQLIAGLTKQLKVEE [R41G], the abundance fitness was -0.556 ± 0.041. In the case of ISTPTHWSKLDPKTMKVNDLRKELESRALSSKGLKSQLIADLTKQLKVEE [R41D], the abundance fitness is -0.434 ± 0.096. Turning to ISTPTHWSKLDPKTMKVNDLRKELESRALSSKGLKSQLIAPLTKQLKVEE [R41P], the abundance fitness was -0.728 ± 0.084. In the case of ISTPTHWSKLDPKTMKVNDLRKELESRALSSKGLKSQLIAQLTKQLKVEE [R41Q], the abundance fitness is -0.466 ± 0.077. In the case of ISTPTHWSKLDPKTMKVNDLRKELESRALSSKGLKSQLIATLTKQLKVEE [R41T] it was -0.237 ± 0.051; in that of ISTPTHWSKLDPKTMKVNDLRKELESRALSSKGLKSQLIAALTKQLKVEE [R41A], -0.377 ± 0.059. In the case of ISTPTHWSKLDPKTMKVNDLRKELESRALSSKGLKSQLIAWLTKQLKVEE [R41W], the abundance fitness is -0.877 ± 0.069. ISTPTHWSKLDPKTMKVNDLRKELESRALSSKGLKSQLIAILTKQLKVEE [R41I]: the abundance fitness was -0.416 ± 0.061.

On to ISTPTHWSKLDPKTMKVNDLRKELESRALSSKGLKSQLIAHLTKQLKVEE [R41H], for which the abundance fitness was -0.374 ± 0.051.

Take ISTPTHWSKLDPKTMKVNDLRKELESRALSSKGLKSQLIAFLTKQLKVEE [R41F]: the abundance fitness is -0.814 ± 0.07. For the variant ISTPTHWSKLDPKTMKVNDLRKELESRALSSKGLKSQLIAELTKQLKVEE [R41E], the abundance fitness is -0.212 ± 0.045. For the variant ISTPTHWSKLDPKTMKVNDLRKELESRALSSKGLKSQLIANLTKQLKVEE [R41N], the abundance fitness was -0.235 ± 0.045. The result for ISTPTHWSKLDPKTMKVNDLRKELESRALSSKGLKSQLIARITKQLKVEE [L42I] reads -0.231 ± 0.041; that for ISTPTHWSKLDPKTMKVNDLRKELESRALSSKGLKSQLIARDTKQLKVEE [L42D], -0.493 ± 0.043; that for ISTPTHWSKLDPKTMKVNDLRKELESRALSSKGLKSQLIARYTKQLKVEE [L42Y], -0.845 ± 0.081. Take ISTPTHWSKLDPKTMKVNDLRKELESRALSSKGLKSQLIARWTKQLKVEE [L42W]: the abundance fitness was -0.929 ± 0.095. On to ISTPTHWSKLDPKTMKVNDLRKELESRALSSKGLKSQLIARCTKQLKVEE [L42C], for which the abundance fitness was -0.795 ± 0.12. Take ISTPTHWSKLDPKTMKVNDLRKELESRALSSKGLKSQLIARGTKQLKVEE [L42G]: the abundance fitness was -0.516 ± 0.039. For ISTPTHWSKLDPKTMKVNDLRKELESRALSSKGLKSQLIARQTKQLKVEE [L42Q], the abundance fitness was -0.505 ± 0.052. On to ISTPTHWSKLDPKTMKVNDLRKELESRALSSKGLKSQLIARPTKQLKVEE [L42P], for which the abundance fitness was -0.472 ± 0.076.

In the case of ISTPTHWSKLDPKTMKVNDLRKELESRALSSKGLKSQLIARRTKQLKVEE [L42R], the abundance fitness was -0.733 ± 0.038. Take ISTPTHWSKLDPKTMKVNDLRKELESRALSSKGLKSQLIARFTKQLKVEE [L42F]: the abundance fitness was -0.56 ± 0.073.

As for ISTPTHWSKLDPKTMKVNDLRKELESRALSSKGLKSQLIARTTKQLKVEE [L42T], the abundance fitness is -0.585 ± 0.053.

For the variant ISTPTHWSKLDPKTMKVNDLRKELESRALSSKGLKSQLIARHTKQLKVEE [L42H], the abundance fitness was -0.509 ± 0.11. With ISTPTHWSKLDPKTMKVNDLRKELESRALSSKGLKSQLIARNTKQLKVEE [L42N], the abundance fitness is -0.515 ± 0.049. In the case of ISTPTHWSKLDPKTMKVNDLRKELESRALSSKGLKSQLIARSTKQLKVEE [L42S] it was -0.563 ± 0.04; in that of ISTPTHWSKLDPKTMKVNDLRKELESRALSSKGLKSQLIARATKQLKVEE [L42A], -0.662 ± 0.072. As to ISTPTHWSKLDPKTMKVNDLRKELESRALSSKGLKSQLIARETKQLKVEE [L42E], the abundance fitness was -0.547 ± 0.053. For the variant ISTPTHWSKLDPKTMKVNDLRKELESRALSSKGLKSQLIARVTKQLKVEE [L42V], the abundance fitness was -0.634 ± 0.049. The result for ISTPTHWSKLDPKTMKVNDLRKELESRALSSKGLKSQLIARMTKQLKVEE [L42M] reads -0.206 ± 0.057.

For ISTPTHWSKLDPKTMKVNDLRKELESRALSSKGLKSQLIARKTKQLKVEE [L42K], the abundance fitness is -0.677 ± 0.055.
